Source: patent US20100272753A1

Molecular target: native circumsporozoite protein (CSP) on intact P. falciparum sporozoites (Plasmodium falciparum) (UniProt Q7K740)
Experiment: indirect immunofluorescence on intact P. falciparum sporozoites

Sequence of UniProt Q7K740 (Q7K740 19-374): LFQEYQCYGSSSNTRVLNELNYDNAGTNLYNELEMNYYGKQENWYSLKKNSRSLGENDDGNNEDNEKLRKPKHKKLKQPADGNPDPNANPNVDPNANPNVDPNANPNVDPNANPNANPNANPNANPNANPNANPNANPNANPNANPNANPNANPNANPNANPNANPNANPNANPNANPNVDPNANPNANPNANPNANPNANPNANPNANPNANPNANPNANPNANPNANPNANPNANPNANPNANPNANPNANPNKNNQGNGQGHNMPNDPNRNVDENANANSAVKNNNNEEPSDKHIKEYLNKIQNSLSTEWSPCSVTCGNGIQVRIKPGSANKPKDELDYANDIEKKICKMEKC

## anti-P. falciparum NANP monoclonal antibody 2A10
  dilution positive in immunofluorescence (reciprocal dilution): 16000
